From the nanobody polyreactivity screen of Harvey et al. (2022)

Test: yeast display, Sf9 membrane polyspecificity reagent, FACS + sequencing; frameworks hold sequencing errors
Procedure, shortened: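 After 36–48 hours of galactose induction, yeast (Saccharomyces cerevisiae BJ5465) displaying a synthetic nanobody library were stained at 4 °C for 1 hour with 10% biotinylated, detergent-solubilized Sf9 membrane reagent. Streptavidin microbeads enriched the stained cells before FACS sorting into low and high (top ~1%) gates on anti-HA and streptavidin fluorescence. Each clone's polyreactivity label reflects its gate of origin.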

QVQLVESGGGLVQAGGSLRLSCAASGITFARYAMGLYIQAPGKERELVAAISKRGGRKYYADSVKGRFTISRDNAKNTVYLQMNSLKPEDTAVYYCATDYYVSTDYNLWGQGTQVTVSS
polyreactivity (PSR sort gate): high polyreactivity

QVQLVESGGGLVQAGGSLRLSCAASGITFAYYAKAWYRQAPGKERELVAAINWSGGSTYYADSVKGRFTISRDNAKNTVYLQMNSLKPEDTAVYYCNAVPRRGYSRRDYWGQGTQVTVSS
polyreactivity (PSR sort gate): high polyreactivity

QVQLVESGGGLVQAGGSLRLSCAASGITFCDNTMGWYRQAPGKERELVAAITYSSTSTYYADSVKGRFTISRDNAKNTVYLQMNSLKTEDTAVYYCAAEGPGDVVSTDYDFWGQGTQVTVSS
polyreactivity (PSR sort gate): low polyreactivity

QVQLVESGGGLVQAGGSLRLSCAASGITFCSYTMGWYRQAPGKERELVAVISSGGSTNYADSVKGRFTISRDNAKNTVYLQMNSLKPEDTAVYYCAADFRWWYTGFDYWGQGTQVTVSS
polyreactivity (PSR sort gate): high polyreactivity

QVQLVESGGGLVQAGGSLRLSCAASGITFCYYVMGWYRQAPGKERELVAAISSGSSTYYADSVKGRFTISRDNAKNTVYLQMNSLKPEDTAVYYCAAESVYWLEFRYYYWGQGTQVTVSS
polyreactivity (PSR sort gate): low polyreactivity

QVQLVESGGGLVQAGGSLRLSCAASGITFDDNAMGWYRQAPGKERELVATISDGGRTYYADSVKGRFTISRDNAKNTVYLQMNSLKPEDTAVYYCAAGYPYYHVYGYGYWGQGTQVTVSS
polyreactivity (PSR sort gate): low polyreactivity

QVQLVESGGGLVQAGGSLRLSCAASGITFDDYVMGWYRQAPGKERELVAAITRSGGRTYYADSVKGRFTISRDNAKNTVDLQMNSLKPEVTAVYYCAARHRDNRFDYWGQGTQVTVSS
polyreactivity (PSR sort gate): high polyreactivity

QVQLVESGGGLVQAGGSLRLSCAASGITFDGNAMGWYRQAPGKERELVAGISGSGGGTYYADSVKGRFTISRDNAKNTVYLQMNSLKPEDTAVYYCAADTSTSHAYDYWGQGTQVTVSS
polyreactivity (PSR sort gate): low polyreactivity

QVQLVESGGGLVQAGGSLRLSCAASGITFDHYAMGWYRQAPGKERELVAAITSGGNTNYADSVKGRFTISRDNAKNTVYLQMNILKPVDTAVYYCNARYDVWYYYWGQGTQVTVSS
polyreactivity (PSR sort gate): high polyreactivity

QVQLVESGGGLVQAGGSLRLSCAASGITFDLYAMGWYRQAPGKERELVAAISISSTSTYYADSVKGRFTISRDNAKNTVYLQMNSLKPEDTAVYYCNAVPSSKTFWFDYWGQGTQVTVSS
polyreactivity (PSR sort gate): low polyreactivity

QVQLVESGGGLVQAGGSLRLSCAASGITFDRYLMGWYRQAPGKERELDAAISWTGDSTYYADSVKGRFTISRDNAKNTVYLQMNSLKPEDPAVYYCAAEDLWYGYNYWGQGTQVTVSS
polyreactivity (PSR sort gate): high polyreactivity

QVQLVESGGGLVQAGGSLRLSCAASGITFDSNAMGWYRQAPGNERELVAAISSTGSTDYADSVKGRFTITRDNAKNTVYLQMNSLKPEDTAVYYCATGGRGGRRYEYWGQGTQVTVSS
polyreactivity (PSR sort gate): low polyreactivity

QVQLVESGGGLVQAGGSLRLSCAASGITFDSNTKGWYRPAPGKEREFVATISYSGGSTYYADSVKGRFTISRDNAKNTVYFQMNSLKPEDTAVYYCHADYYGGPTMQYGYLWYDYWGEGTQVTVSS
polyreactivity (PSR sort gate): low polyreactivity

QVQLVESGGGLVQAGGSLRLSCAASGITFDSYAMGWYRQAPGKEREFVAAISRSGGSTYYADSVKGRFTISRDNAKNTVYLQMNSLKPEDTAVYYCAVSLGRGSSWKLGYWGQGTQVTVSS
polyreactivity (PSR sort gate): high polyreactivity

QVQLVESGGGLVQAGGSLRLSCAASGITFDSYAMGWYRQAPGKERELVAAISYSGGSTYYADSVKGRFTISRDNAKNTVYLQMNSLKPEDTAVYYCAAASDDDYDYWGQGTQVTVSS
polyreactivity (PSR sort gate): low polyreactivity

QVQLVESGGGLVQAGGSLRLSCAASGITFEGYAMGGYRQAPGKERELVAAIRSSGTSTYYADSVKGRFTISRDNAKNTVYLQMNSLKPEDTAVYYCNRARSSSLYDYWGQGTQVTVSS
polyreactivity (PSR sort gate): low polyreactivity

QVQLVESGGGLVQAGGSLRLSCAASGITFEGYAMGRYRQAPGKERELVAAITGSGSTTYYADSVKGRFTISRDNAKNTVYLQMNSLKPEDTAVYYCAADVSYKLYWGQGTQVTVSS
polyreactivity (PSR sort gate): low polyreactivity

QVQLVESGGGLVQAGGSLRLSCAASGITFEGYAMGWYRQAPGKERELVAAITGSGSTTYYADSVKGRFTISRDNAKNTVYLQMNSLKPEDTAVYYCAADVSYKLYWGQGTQVTVSS
polyreactivity (PSR sort gate): low polyreactivity

QVQLVESGGGLVQAGGSLRLSCAASGITFEGYAMGWYRQAPGKERELVAAITWSGGRTYYADSVKGRFTISRDNAKNTVYLQMNSLKPEDTAVYYCAADVSDWSNQYFDSYLRMDYWGQGTQVTVSS
polyreactivity (PSR sort gate): low polyreactivity

QVQLVESGGGLVQAGGSLRLSCAASGITFEIYVMGWYRQAPGKERELVAAITSDDTTYADSVKGRFTISRDNAKNTVYLQMNSLKPEDTAVYYCAADYYGVGVGPYSPADEYDYWGQGTQVTVSS
polyreactivity (PSR sort gate): low polyreactivity

QVQLVESGGGLVQAGGSLRLSCAASGITFEKYAMGWYRQAPGKERELVAAITSSGGSTYYADSVKGRFTISRDNAKNTVYLQMNSLKPEDTAVYYCKARYYYADRTSGGYYYWGQGTQVTVSS
polyreactivity (PSR sort gate): high polyreactivity

QVQLVESGGGLVQAGGSLRLSCAASGITFERYAIGWYRQAPGKERELVAAITSSGGSTYYADSVKGRFTISRDNAKNTVYLQMNSLKPEDTAVYYCAARNAYTPRHDYWGQGTQVTVSS
polyreactivity (PSR sort gate): high polyreactivity

QVQLVESGGGLVQAGGSLRLSCAASGITFERYTMGWYRQAPGKERELVAAIRGSGGTYYADSVKGRFTISRDNAKNTVYLQMNSLKPEDTAVYYCAARYSYRYGVVYGTLHGYWGQGTQVTVSS
polyreactivity (PSR sort gate): high polyreactivity

QVQLVESGGGLVQAGGSLRLSCAASGITFETYAMGWYRPAPGTVRELVAAISSGTDDTYYADSVKGRFTISRDNATNTVYLQMNSLKPEDTAVYYCAALGYATGSWRYYYWGQGTQVTVSS
polyreactivity (PSR sort gate): low polyreactivity

QVQLVESGGGLVQAGGSLRLSCAASGITFEYFDRGWYRQAPGKERELVAAISWSTDITYADSVKGRFTISRDNAKNTVYLQMNSLKPEDTAVYYCAASTYEYTSYDYWGQGTQVTVSS
polyreactivity (PSR sort gate): low polyreactivity

QVQLVESGGGLVQAGGSLRLSCAASGITFEYYTMGWYRQAPGKERELVAAITQGGGTTYYADSVKGRFTISRDNAKNTVYLQMNSLKPEDTAVYYCAAYVGYLLLYYPTYYYWGQGTQVTVSS
polyreactivity (PSR sort gate): low polyreactivity

QVQLVESGGGLVQAGGSLRLSCAASGITFFDYAMGWYIQAPGKERELVAAIDLSDGRTYYADSVKGRFTISRDNAKNTVYLQMNSLKPEDTAVYYCARQHEDYVYYWYYWYDYDYWGQGTQVTVSS
polyreactivity (PSR sort gate): low polyreactivity

QVQLVESGGGLVQAGGSLRLSCAASGITFFDYAMGWYRQAPGKERELFAAIDLSDGRTYYADSVKGRFTISRDNAKNTVYLQMNSLKPEDTAVYYCNADSFLSWVYRYVYYGSGYWGQGTQVTVSS
polyreactivity (PSR sort gate): low polyreactivity

QVQLVESGGGLVQAGGSLRLSCAASGITFFFNAMGWYRQAPGKERELVAAITSGGGSTYYADSVKGRFTISRDNAKNTVYLQMNSLKPEDTAVYYCNADFSKSYDYWGQGTQVTVSS
polyreactivity (PSR sort gate): low polyreactivity

QVQLVESGGGLVQAGGSLRLSCAASGITFFQYAMGWSRQAPGKERELVAAISRSGSRTYYADSVKGRFTISRDNAKNTVYLQLNSLKQEDTAVYYCAAARVNDHYGYYRQMNYWGQCTQVTVSS
polyreactivity (PSR sort gate): high polyreactivity

QVQLVESGGGLVQAGGSLRLSCAASGITFFRYAMGWYRQAPGKERELVAAISSSGGSTYYADSVKGRFTISRDNAKNTVYLQMNSLKPEDTAVYYCAAAHGYRYYWGQGTQVTVSS
polyreactivity (PSR sort gate): high polyreactivity

QVQLVESGGGLVQAGGSLRLSCAASGITFFRYTMGWYRQAPGKEREFVAAINIRGTRTYYADSVKGRFTISRDNAKNTVYLQMNSLKPEDTAVYYCAAGYAYRYSGLSYDVDYWGQGTQVTVSS
polyreactivity (PSR sort gate): high polyreactivity

QVQLVESGGGLVQAGGSLRLSCAASGITFFTYGMGWYRQAPGKERELVASINWSGGTYYADSVKGRFTISRDNAKNTVYLQMNSLKPEDTAVYYCAAETSNSTQEMGYWGQGTQVTVSS
polyreactivity (PSR sort gate): low polyreactivity

QVQLVESGGGLVQAGGSLRLSCAASGITFFTYTMGWYRQAPGKERELVARIRWDGGSTYYADSVKGRFTISRDNAKNTVYLQMNSLKPEDTAVYYCAADYPYSTYDYWGQVTQVTVSS
polyreactivity (PSR sort gate): low polyreactivity

QVQLVESGGGLVQAGGSLRLSCAASGITFGAYAMGWYRQAPGKEMELVAVITRGADTYYADSVKGRFTISRDNAKNTVYLQMNSLKPEDTAVYDCAAEIDLPYYYGSDDDDYWGQGTQVTVSS
polyreactivity (PSR sort gate): high polyreactivity

QVQLVESGGGLVQAGGSLRLSCAASGITFGDYAMGWSRQAPGKERELVAGINWSGDGTYYADSVKGRFTISRDNAKNTVYLQMNSLKPEDTAVYYCAAETFYDYGGYDYWGQGTQVTVSS
polyreactivity (PSR sort gate): low polyreactivity

QVQLVESGGGLVQAGGSLRLSCAASGITFGFNAMGWYRQAPGKERELVAAITWSVGRTYYADSVKGRFTISRDNAKNTVYLQMNSLKPEDTAVYYCAKEFVAGDDYFAYDYWGQGTQVTVSS
polyreactivity (PSR sort gate): low polyreactivity

QVQLVESGGGLVQAGGSLRLSCAASGITFGGNAMGWYRQDPGKERELVAAISSSGGSTYYADSVKGRFTISRDNAKNTVYLQMNSLKPEDTAVYYCAARNRYPLRFYYWGQGTQVTVSS
polyreactivity (PSR sort gate): high polyreactivity

QVQLVESGGGLVQAGGSLRLSCAASGITFGLYAMGWYRQAPGKERELVAAITWRGGSTYYADSVKGRFTISRDNAKNTVYLQMNSLKPEDTAVYYCAADFSGYSDDYWGQGTQVTVSS
polyreactivity (PSR sort gate): high polyreactivity

QVQLVESGGGLVQAGGSLRLSCAASGITFGRKTMGWYRQAPGKERELLAAIDSGGNTYADSVKGRFTISRDNAKNTDYLEMNSLKPEDTAVYYCAVDGGEFYSYGYWGLGTQVTVSS
polyreactivity (PSR sort gate): low polyreactivity

QVQLVESGGGLVQAGGSLRLSCAASGITFGRNTMAWYIQAPGKERELVAAIDSGGNTYADSVKGRFTISRDNAKITVDLQMNSLKQEDTSVYYCAVVWVWDVWFLVYYWGQGTQVTVSS
polyreactivity (PSR sort gate): low polyreactivity

QVQLVESGGGLVQAGGSLRLSCAASGITFGRNTMGWSRQAPGKEREMVASITRGGNTNYADSVKGRFTISRDNAKNTVYLQLNSLKPEDTAVYYCAARSTYRVSHVDYWGQGTQVTVSS
polyreactivity (PSR sort gate): low polyreactivity

QVQLVESGGGLVQAGGSLRLSCAASGITFGRNTMGWYRPAPGKERELVAAIDSGGNTYADSVKGRFTISRDNAKNTVYLQMNSLKAEDTAVYYCAVDGGEFSSYGYWGQGTQVTVSS
polyreactivity (PSR sort gate): low polyreactivity
